± gives the uncertainty stated by the source.
Test: self-splicing fitness, log relative to wild type (ln ratio); higher = more splicing; Tetrahymena group I intron in knt gene, E. coli kanamycin selection, DiMSum; sequences stand for … in CUCUCU…GGAGGGAAAAGUUAUCAGGCAUGCACCUGGUAGCUAGUCUUUAAACCAAUAGAUUGCAUCGGUUUAAAAGGCAAGACCGUCAAAUUGCGGGAAAGGGGUCAACAGCCGUUCAGUACCAAGUCUCAGGGGAAACUUUGAGAUGGCCUUGCAAAGGGUAUGGUAAUAAGCUGACGGACAUGGUCCUAACCACGCAGCCAAGUCCUAAGUCAACAGAUCUUCUGUUGAUAUGGAUGCAGUUCACAGACUAAAUGUCGGUCGGGGAAGAUGUAUUCUUCUCAUAAGAUAUAGUCGGACCUCUCCUUAAUGGGAGCUAGCGGAUGAAGUGAUGCAACACUGGAGCCGCUGGGAACUAAUUUGUAUGCGAAAGUAUAUUGAUUAGUUUUGGAGUACUCGUGGUCG
How it was run: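 A randomised library covering all eight P1ex-region intron nucleotides was built with the intron in the knt kanamycin-resistance gene on pET-22b(+) and held in E. coli BL21(DE3). Cells were grown overnight at 37°C or 30°C on LB agar, with or without 25 μg/mL kanamycin, plus 100 μg/mL carbenicillin, 50 μM IPTG and 0.2% rhamnose, and pooled colonies were amplicon-sequenced on an Illumina HiSeq 2500. DiMSum fitness is the error-weighted combination of wild-type-normalised replicate fold changes, kanamycin versus none.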

Sequence | self-splicing fitness (ln) (30 °C) | self-splicing fitness (ln) (37 °C)
GUACAGCAAUAUUACGUAGG | -2.79 ± 0.15 | -0.471 ± 0.12
GUACAGCAAUAUUACGUCAU | -1.7 ± 0.09 | -1.13 ± 0.11
GUACAGCAAUAUUACGUUGC | -3.96 ± 0.13 | -3.05 ± 0.14
GUACAGCAAUAUUACGUUUA | -2.62 ± 0.15 | -1.89 ± 0.11
GUACAGCAAUAUUACGUUUG | -3.06 ± 0.13 | -2.59 ± 0.17
GUAGAGCAAUAUUACGAAAU | -1 ± 0.15 | -1.21 ± 0.17
GUAGAGCAAUAUUACGAACU | -1.19 ± 0.23 | -0.867 ± 0.24
GUAGAGCAAUAUUACGAAGA | -3.65 ± 0.29 | -2.22 ± 0.43
GUAGAGCAAUAUUACGCAAC | -1.79 ± 0.24 | -0.94 ± 0.39
GUAGAGCAAUAUUACGCACA | -0.23 ± 0.14 | -0.117 ± 0.14
GUAGAGCAAUAUUACGCAGU | -1.39 ± 0.11 | -1.45 ± 0.17
GUAGAGCAAUAUUACGCGCA | -0.299 ± 0.1 | 0.0346 ± 0.13
GUAGAGCAAUAUUACGCGUC | -0.836 ± 0.18 | -0.0736 ± 0.22
GUAGAGCAAUAUUACGGCGG | -1.86 ± 0.12 | -1.99 ± 0.18
GUAGAGCAAUAUUACGGGAC | -1.46 ± 0.2 | -1.13 ± 0.15
GUAGAGCAAUAUUACGGUGU | -1.82 ± 0.081 | -1.23 ± 0.099
GUAGAGCAAUAUUACGGUUC | -1.84 ± 0.11 | -0.825 ± 0.14
GUAGAGCAAUAUUACGGUUG | -2.62 ± 0.15 | -1.13 ± 0.22
GUAGAGCAAUAUUACGUAAG | -2.29 ± 0.26 | -0.825 ± 0.27

Sequence | self-splicing fitness (ln) (30 °C) | self-splicing fitness (ln) (37 °C)
GUAGAGCAAUAUUACGUACG | -1.92 ± 0.19 | -1.35 ± 0.35
GUAGAGCAAUAUUACGUAUU | -2.43 ± 0.12 | -1.42 ± 0.13
GUAGAGCAAUAUUACGUCCG | -2.26 ± 0.27 | -2.49 ± 0.49
GUAGAGCAAUAUUACGUUGA | -2.98 ± 0.2 | -0.879 ± 0.17
GUAUAGCAAUAUUACGAAAC | – | -1.02 ± 0.49
GUAUAGCAAUAUUACGAACC | -2.63 ± 0.43 | -0.238 ± 0.23
GUAUAGCAAUAUUACGAAGA | -3.64 ± 0.47 | -0.936 ± 0.23
GUAUAGCAAUAUUACGACAA | -0.741 ± 0.27 | -1.34 ± 0.3
GUAUAGCAAUAUUACGACGU | -0.443 ± 0.069 | 0.436 ± 0.092
GUAUAGCAAUAUUACGACUA | -0.438 ± 0.21 | 0.00698 ± 0.23
GUAUAGCAAUAUUACGACUC | -0.23 ± 0.14 | 0.0743 ± 0.23
GUAUAGCAAUAUUACGAGGA | -2.45 ± 0.26 | -2.66 ± 0.38
GUAUAGCAAUAUUACGAGGC | -2.1 ± 0.33 | -2.18 ± 0.47
GUAUAGCAAUAUUACGAGGU | -2.99 ± 0.26 | -0.619 ± 0.28
GUAUAGCAAUAUUACGAUGG | -3.43 ± 0.35 | -0.958 ± 0.24
GUAUAGCAAUAUUACGCAAC | -2.53 ± 0.37 | –
GUAUAGCAAUAUUACGCACC | -1.85 ± 0.17 | -1.66 ± 0.27
GUAUAGCAAUAUUACGCAGU | – | -2.33 ± 0.37
GUAUAGCAAUAUUACGCAUC | -2.15 ± 0.17 | -0.982 ± 0.13
